From patent EP4242303A1 (Novozymes A/S, dated 2023)
Where two headings read alike, the source gives them in different places.

T1: deamidase polypeptide from Chryseobacterium gambrini (deamidase domain of the fusion polypeptide SEQ ID NO: … (Chryseobacterium gambrini))
T1 chain: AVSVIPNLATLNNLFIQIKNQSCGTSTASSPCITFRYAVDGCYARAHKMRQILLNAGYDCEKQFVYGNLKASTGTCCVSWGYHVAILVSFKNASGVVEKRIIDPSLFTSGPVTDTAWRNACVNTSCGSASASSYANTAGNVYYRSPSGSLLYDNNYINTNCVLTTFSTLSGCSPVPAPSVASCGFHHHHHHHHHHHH

T2: deamidase polypeptide from Chryseobacterium sp-62563 (deamidase domain of the pro-form SEQ ID NO: 5) (Chryseobacterium sp-62563)
T2 chain: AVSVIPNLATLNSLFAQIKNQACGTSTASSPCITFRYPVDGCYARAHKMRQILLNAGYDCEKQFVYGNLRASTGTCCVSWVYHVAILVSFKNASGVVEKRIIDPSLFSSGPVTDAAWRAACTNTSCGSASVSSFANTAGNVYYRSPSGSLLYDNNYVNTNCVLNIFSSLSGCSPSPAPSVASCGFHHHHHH

T3: deamidase polypeptide from Chryseobacterium culicis (deamidase domain of the fusion polypeptide SEQ ID NO: 15) (Chryseobacterium culicis)
T3 chain: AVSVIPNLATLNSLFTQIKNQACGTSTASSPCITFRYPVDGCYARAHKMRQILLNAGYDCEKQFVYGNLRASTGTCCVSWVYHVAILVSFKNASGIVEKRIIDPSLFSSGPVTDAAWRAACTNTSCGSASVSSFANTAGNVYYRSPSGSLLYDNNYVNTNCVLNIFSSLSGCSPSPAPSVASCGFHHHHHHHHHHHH

T4: deamidase polypeptide from Chryseobacterium defluvii (deamidase domain of the fusion polypeptide SEQ ID NO: … (Chryseobacterium defluvii))
T4 chain: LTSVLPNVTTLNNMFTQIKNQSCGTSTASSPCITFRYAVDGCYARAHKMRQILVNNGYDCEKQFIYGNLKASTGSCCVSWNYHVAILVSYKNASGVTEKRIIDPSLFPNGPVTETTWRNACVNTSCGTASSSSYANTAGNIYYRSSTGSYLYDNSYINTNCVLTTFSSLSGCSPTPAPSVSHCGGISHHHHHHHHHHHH


Columns and labels:
Assay in all cases: cell-based or functional assay
[1] = target: T1, deamidase polypeptide from …
[2] = target: T2, deamidase polypeptide from …
[3] = target: T2, deamidase polypeptide from …
[4] = target: T2, deamidase polypeptide from …
[5] = target: T2, deamidase polypeptide from …
[6] = target: T3, deamidase polypeptide from …
[7] = target: T4, deamidase polypeptide from …

| Binder | NanoDSF thermal unfolding temperature [3] | Leakage activity [4] | Relative activity of "activated" sample (% initial rate) [5] | also measured |
| --- | --- | --- | --- | --- |
| propeptide from Chryseobacterium gambrini (propeptide domain of the fusion polypeptide SEQ ID NO: 10) (other) NQDPNLVVKENNENAMRDFGSTIPVGIQKEGNVLKVSFIISAQFYEIKDSKENEAFISMIKSAIENETPVHVFLKKNSNEIAKVEKATDEDVTYFKSIFTKEVKEENRK | – | – | – | NanoDSF thermal unfolding temperature [1]: 89.3 °C |
| propeptide from Chryseobacterium sp-62563 (wildtype propeptide domain of the protein glutamine deamidase pro-form SEQ ID NO: 5) (other) NQDPNLVAKESNETAMKDFGKTVPVGIEKEDGKFKISFMVTAQPYEIKDSKENAAYISMIKTAVENETPIHVFLKANTNEIAKVDKATDDDIRYFKSVFTKEVKEENRK | – | – | – | NanoDSF thermal unfolding temperature [2]: 85.3 °C |
| variant deamidase propeptide F99A of Chryseobacterium sp-62563 (SEQ ID NO: 2) (other) NQDPNLVAKESNETAMKDFGKTVPVGIEKEDGKFKISFMVTAQPYEIKDSKENAAYISMIKTAVENETPIHVFLKANTNEIAKVDKATDDDIRYFKSVATKEVKEENRK | 76.4 °C | 20% | ≥ 100% | – |
| variant deamidase propeptide F38C of Chryseobacterium sp-62563 (SEQ ID NO: 2) (other) NQDPNLVAKESNETAMKDFGKTVPVGIEKEDGKFKISCMVTAQPYEIKDSKENAAYISMIKTAVENETPIHVFLKANTNEIAKVDKATDDDIRYFKSVFTKEVKEENRK | 76.2 °C | 26% | ≥ 100% | – |
| propeptide from Chryseobacterium culicis (propeptide domain of the fusion polypeptide SEQ ID NO: 15) (other) NQDPNLVAKESNEIAMKDFGKTVPVGIEKEEGKFKVSFMVSAQPYHIKDSKENAGYISMIRQAVENETPVHIFLKTNTNEIAKVDKPTDDDIRYFKSVFTKEVKEENRK | – | – | – | NanoDSF thermal unfolding temperature [6]: 85.2 °C |
| propeptide from Chryseobacterium defluvii (propeptide domain of the fusion polypeptide SEQ ID NO: 20) (other) ATNQDVVGKENTSNHVAARDFGKTVPVGINEENGTLKVSFILSAQFYEIKPSKENEEYISLIRQAIQNESPIHVFMKLNSNEIVKVEKGTEEDVKYFRSILTKEVKEENRK | – | – | – | NanoDSF thermal unfolding temperature [7]: 89 °C |

Now from value to binder, other results behind:

| NanoDSF thermal unfolding temperature [3] | Leakage activity [4] | Relative activity of "activated" sample (% initial rate) [5] | Binder | also measured |
| --- | --- | --- | --- | --- |
| 65.2 °C | 2% | ≥ 100% | variant deamidase propeptide Y45G of Chryseobacterium sp-62563 (SEQ ID NO: 2) (other) NQDPNLVAKESNETAMKDFGKTVPVGIEKEDGKFKISFMVTAQPGEIKDSKENAAYISMIKTAVENETPIHVFLKANTNEIAKVDKATDDDIRYFKSVFTKEVKEENRK | – |
| 69.8 °C | 10% | ≥ 100% | variant deamidase propeptide V23S of Chryseobacterium sp-62563 (SEQ ID NO: 2) (other) NQDPNLVAKESNETAMKDFGKTSPVGIEKEDGKFKISFMVTAQPYEIKDSKENAAYISMIKTAVENETPIHVFLKANTNEIAKVDKATDDDIRYFKSVFTKEVKEENRK | – |
| 75.2 °C | 23% | ≥ 100% | variant deamidase propeptide Y94P of Chryseobacterium sp-62563 (SEQ ID NO: 2) (other) NQDPNLVAKESNETAMKDFGKTVPVGIEKEDGKFKISFMVTAQPYEIKDSKENAAYISMIKTAVENETPIHVFLKANTNEIAKVDKATDDDIRPFKSVFTKEVKEENRK | – |
| 73.7 °C | 2% | ≥ 100% | variant deamidase propeptide Y45T of Chryseobacterium sp-62563 (SEQ ID NO: 2) (other) NQDPNLVAKESNETAMKDFGKTVPVGIEKEDGKFKISFMVTAQPTEIKDSKENAAYISMIKTAVENETPIHVFLKANTNEIAKVDKATDDDIRYFKSVFTKEVKEENRK | – |
| 75.4 °C | 32% | ≥ 100% | variant deamidase propeptide F99K of Chryseobacterium sp-62563 (SEQ ID NO: 2) (other) NQDPNLVAKESNETAMKDFGKTVPVGIEKEDGKFKISFMVTAQPYEIKDSKENAAYISMIKTAVENETPIHVFLKANTNEIAKVDKATDDDIRYFKSVKTKEVKEENRK | – |
| 74.1 °C | 20% | ≥ 100% | variant deamidase propeptide F99G of Chryseobacterium sp-62563 (SEQ ID NO: 2) (other) NQDPNLVAKESNETAMKDFGKTVPVGIEKEDGKFKISFMVTAQPYEIKDSKENAAYISMIKTAVENETPIHVFLKANTNEIAKVDKATDDDIRYFKSVGTKEVKEENRK | – |
